From IntAct's records for PubMed 18056643

B1: Tyrosine-protein phosphatase non-receptor type 22 (Homo sapiens), Q9Y2R2 (parent)
chain: MDQREILQKFLDEAQSKKITKEEFANEFLKLKRQSTKYKADKTYPTTVAEKPKNIKKNRYKDILPYDYSRVELSLITSDEDSSYINANFIKGVYGPKAYIATQGPLSTTLLDFWRMIWEYSVLIIVMACMEYEMGKKKCERYWAEPGEMQLEFGPFSVSCEAEKRKSDYIIRTLKVKFNSETRTIYQFHYKNWPDHDVPSSIDPILELIWDVRCYQEDDSVPICIHCSAGCGRTGVICAIDYTWMLLKDGIIPENFSVFSLIREMRTQRPSLVQTQEQYELVYNAVLELFKRQMDVIRDKHSGTESQAKHCIPEKNHTLQADSYSPNLPKSTTKAAKMMNQQRTKMEIKESSSFDFRTSEISAKEELVLHPAKSSTSFDFLELNYSFDKNADTTMKWQTKAFPIVGEPLQKHQSLDLGSLLFEGCSNSKPVNAAGRYFNSKVPITRTKSTPFELIQQRETKEVDSKENFSYLESQPHDSCFVEMQAQKVMHVSSAELNYSLPYDSKHQIRNASNVKHHDSSALGVYSYIPLVENPYFSSWPPSGTSSKMSLDLPEKQDGTVFPSSLLPTSSTSLFSYYNSHDSLSLNSPTNISSLLNQESAVLATAPRIDDEIPPPLPVRTPESFIVVEEAGEFSPNVPKSLSSAVKVKIGTSLEWGGTSEPKKFDDSVILRPSKSVKLRSPKSELHQDRSSPPPPLPERTLESFFLADEDCMQAQSIETYSTSYPDTMENSTSSKQTLKTPGKSFTRSKSLKILRNMKKSICNSCPPNKPAESVQSNNSSSFLNFGFANRFSKPKGPRNPPPTWNI

Variants of: B1
Details: with kpcd_human PRKCD

| Variant | effect of a mutation on the interaction |
| --- | --- |
| S35E | decreasing interaction |
